Assay results from the supplement of paper PMC10065799, “High-throughput profiling of sequence recognition by tyrosine kinases and SH2 domains using bacterial peptide display” (eLife, 2023).

Experiments:
AncSZ = test: phosphorylation enrichment, bacterial display (enrichment ratio); higher = better substrate or ligand; peptides without Tyr show the background
EPHB1 = EPHB1 (UniProt P54762); test: as above
EPHB2 = EPHB2 (UniProt P29323); test: as above
FGFR1 = FGFR1 (UniProt P11362); test: as above
FGFR1, sequence (P11362 whole entry, looked up): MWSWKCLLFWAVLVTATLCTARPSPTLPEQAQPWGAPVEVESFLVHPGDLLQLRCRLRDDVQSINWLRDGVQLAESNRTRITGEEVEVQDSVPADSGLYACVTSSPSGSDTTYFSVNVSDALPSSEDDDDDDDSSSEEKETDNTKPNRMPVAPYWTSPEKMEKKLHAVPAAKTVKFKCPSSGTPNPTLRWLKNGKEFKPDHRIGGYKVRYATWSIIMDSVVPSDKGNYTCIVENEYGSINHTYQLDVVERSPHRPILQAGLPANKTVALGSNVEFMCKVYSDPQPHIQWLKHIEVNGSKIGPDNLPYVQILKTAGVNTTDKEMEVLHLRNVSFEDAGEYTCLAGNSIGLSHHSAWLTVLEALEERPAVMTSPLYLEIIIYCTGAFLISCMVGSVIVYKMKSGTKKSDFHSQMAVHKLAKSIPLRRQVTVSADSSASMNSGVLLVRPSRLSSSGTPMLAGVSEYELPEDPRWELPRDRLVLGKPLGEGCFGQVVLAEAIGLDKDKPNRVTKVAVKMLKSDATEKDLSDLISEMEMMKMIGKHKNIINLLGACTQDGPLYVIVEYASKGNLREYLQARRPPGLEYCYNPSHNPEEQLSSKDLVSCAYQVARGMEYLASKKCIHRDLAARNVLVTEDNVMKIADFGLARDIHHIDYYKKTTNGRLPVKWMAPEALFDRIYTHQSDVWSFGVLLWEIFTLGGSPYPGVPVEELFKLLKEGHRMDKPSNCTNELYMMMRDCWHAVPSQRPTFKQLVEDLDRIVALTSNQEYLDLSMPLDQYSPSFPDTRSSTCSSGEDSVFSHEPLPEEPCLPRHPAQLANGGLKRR

FGFR3 = FGFR3 (UniProt P22607); test: as above
FGFR3, sequence (P22607 whole entry, looked up): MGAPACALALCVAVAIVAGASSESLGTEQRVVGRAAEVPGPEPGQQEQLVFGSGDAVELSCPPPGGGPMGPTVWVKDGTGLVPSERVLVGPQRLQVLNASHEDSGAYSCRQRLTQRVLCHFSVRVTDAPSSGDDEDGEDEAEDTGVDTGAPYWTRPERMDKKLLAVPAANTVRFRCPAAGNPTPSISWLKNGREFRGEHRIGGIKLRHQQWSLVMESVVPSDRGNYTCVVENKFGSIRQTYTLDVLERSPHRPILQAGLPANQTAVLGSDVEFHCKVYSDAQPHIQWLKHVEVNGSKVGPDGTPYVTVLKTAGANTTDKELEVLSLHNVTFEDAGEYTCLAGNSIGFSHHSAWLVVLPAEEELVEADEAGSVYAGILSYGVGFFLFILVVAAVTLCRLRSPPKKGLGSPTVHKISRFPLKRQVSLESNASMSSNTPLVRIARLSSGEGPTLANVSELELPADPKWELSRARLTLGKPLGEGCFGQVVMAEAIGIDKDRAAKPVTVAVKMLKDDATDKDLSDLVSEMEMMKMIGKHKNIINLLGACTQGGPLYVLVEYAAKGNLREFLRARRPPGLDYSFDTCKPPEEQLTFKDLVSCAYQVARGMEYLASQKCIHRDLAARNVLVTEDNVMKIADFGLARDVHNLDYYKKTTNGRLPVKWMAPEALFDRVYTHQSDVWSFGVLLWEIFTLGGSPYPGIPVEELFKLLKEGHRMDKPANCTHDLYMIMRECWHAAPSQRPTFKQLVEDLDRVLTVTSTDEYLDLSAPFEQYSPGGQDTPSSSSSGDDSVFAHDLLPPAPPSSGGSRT

Fer (mouse) = test: as above
Fes = Fes (UniProt P07332); test: as above
Fes, sequence (P07332 whole entry, looked up): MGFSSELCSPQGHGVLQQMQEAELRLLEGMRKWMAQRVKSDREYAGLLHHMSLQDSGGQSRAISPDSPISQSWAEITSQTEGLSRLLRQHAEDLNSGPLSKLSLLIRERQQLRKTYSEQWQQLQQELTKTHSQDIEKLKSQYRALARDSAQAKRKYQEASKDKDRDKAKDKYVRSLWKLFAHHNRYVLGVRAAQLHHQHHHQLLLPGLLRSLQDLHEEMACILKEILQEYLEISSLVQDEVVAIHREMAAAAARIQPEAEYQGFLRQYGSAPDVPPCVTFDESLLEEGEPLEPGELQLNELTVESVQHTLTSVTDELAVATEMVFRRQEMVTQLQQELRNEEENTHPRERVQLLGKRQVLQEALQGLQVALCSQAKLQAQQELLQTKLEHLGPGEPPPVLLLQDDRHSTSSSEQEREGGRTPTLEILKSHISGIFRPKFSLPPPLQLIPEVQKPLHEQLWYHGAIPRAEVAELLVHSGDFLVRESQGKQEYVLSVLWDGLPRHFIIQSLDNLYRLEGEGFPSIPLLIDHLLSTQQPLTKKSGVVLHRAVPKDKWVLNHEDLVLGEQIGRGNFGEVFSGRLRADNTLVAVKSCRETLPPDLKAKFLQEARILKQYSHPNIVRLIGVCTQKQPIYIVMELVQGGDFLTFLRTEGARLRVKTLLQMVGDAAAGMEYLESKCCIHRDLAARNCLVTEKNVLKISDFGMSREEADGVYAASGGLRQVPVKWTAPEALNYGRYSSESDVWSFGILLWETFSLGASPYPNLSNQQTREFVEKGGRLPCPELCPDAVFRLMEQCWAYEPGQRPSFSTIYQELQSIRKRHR

Fyn = Fyn (UniProt P06241); test: as above
Hck = Hck (UniProt P08631); test: as above
Hck, sequence (P08631 whole entry, looked up): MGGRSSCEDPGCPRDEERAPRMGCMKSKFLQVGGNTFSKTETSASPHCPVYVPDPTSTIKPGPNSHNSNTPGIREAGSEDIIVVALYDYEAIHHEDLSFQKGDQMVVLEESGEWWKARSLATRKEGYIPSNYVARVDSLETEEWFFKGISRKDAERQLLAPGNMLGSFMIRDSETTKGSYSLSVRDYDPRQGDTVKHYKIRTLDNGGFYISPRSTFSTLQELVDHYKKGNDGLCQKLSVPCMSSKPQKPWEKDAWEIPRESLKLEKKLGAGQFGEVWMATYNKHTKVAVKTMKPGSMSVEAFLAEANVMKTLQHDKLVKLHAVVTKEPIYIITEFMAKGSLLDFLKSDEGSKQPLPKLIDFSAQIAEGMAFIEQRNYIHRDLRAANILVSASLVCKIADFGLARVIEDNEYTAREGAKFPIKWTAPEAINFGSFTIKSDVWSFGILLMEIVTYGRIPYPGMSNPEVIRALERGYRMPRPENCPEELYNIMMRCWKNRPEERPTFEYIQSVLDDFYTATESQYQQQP

Jak2 = Jak2 (UniProt O60674); test: as above
MERTK = MERTK (UniProt Q12866); test: as above
MERTK, sequence (Q12866 whole entry, looked up): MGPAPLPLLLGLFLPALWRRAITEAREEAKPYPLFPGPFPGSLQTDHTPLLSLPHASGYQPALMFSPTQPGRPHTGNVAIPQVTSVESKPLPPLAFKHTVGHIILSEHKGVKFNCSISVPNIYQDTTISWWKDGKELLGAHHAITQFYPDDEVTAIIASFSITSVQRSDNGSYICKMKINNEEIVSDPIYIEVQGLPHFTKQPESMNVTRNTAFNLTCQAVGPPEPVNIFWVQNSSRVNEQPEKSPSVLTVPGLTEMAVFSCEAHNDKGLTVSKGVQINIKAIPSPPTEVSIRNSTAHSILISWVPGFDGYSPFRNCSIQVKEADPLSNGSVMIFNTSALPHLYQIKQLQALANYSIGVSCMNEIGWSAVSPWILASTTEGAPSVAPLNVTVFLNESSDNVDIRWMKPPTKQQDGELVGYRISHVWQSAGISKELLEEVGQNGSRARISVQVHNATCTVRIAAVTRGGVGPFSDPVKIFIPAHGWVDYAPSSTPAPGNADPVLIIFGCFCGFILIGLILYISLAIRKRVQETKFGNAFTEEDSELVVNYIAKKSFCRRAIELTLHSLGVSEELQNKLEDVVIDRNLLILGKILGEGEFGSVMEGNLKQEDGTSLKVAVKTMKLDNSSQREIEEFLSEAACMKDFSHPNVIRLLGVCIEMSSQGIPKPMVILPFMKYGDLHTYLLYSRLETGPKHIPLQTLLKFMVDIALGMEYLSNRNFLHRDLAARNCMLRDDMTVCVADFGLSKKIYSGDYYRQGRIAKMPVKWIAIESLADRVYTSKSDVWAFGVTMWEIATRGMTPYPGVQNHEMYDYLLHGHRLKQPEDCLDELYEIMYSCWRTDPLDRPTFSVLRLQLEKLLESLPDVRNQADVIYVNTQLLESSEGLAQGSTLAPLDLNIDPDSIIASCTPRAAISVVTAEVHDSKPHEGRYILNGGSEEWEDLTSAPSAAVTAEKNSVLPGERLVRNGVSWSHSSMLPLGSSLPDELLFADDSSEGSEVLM

c-Abl (mouse) = test: as above
c-Src = test: as above
Grb2 SH2 = Grb2 SH2 (UniProt P62993); test: SH2 binding enrichment of the phosphorylated peptide, bacterial display (enrichment ratio); higher = better substrate or ligand; peptides without Tyr show the background
SHP2-C SH2 = test: as above
c-Src SH2 = test: as above
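Throughout, for SH2 binding enrichment of the phosphorylated peptide, bacterial display: peptide library displayed on the E. coli surface as eCPX fusions, selected cells deep-sequenced, score is each peptide's frequency after selection divided by its frequency in the input.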
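Throughout, for phosphorylation enrichment, bacterial display: 11-residue human phosphosite peptides and single-mutation variants displayed on the E. coli surface, counted by deep sequencing, each peptide's frequency after selection divided by its frequency in the unselected input library; frequency after pTyr selection over input frequency; kinase dosed for 20-30% of maximal phosphorylation in three min.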

EPHB2, sequence (P29323 whole entry, looked up): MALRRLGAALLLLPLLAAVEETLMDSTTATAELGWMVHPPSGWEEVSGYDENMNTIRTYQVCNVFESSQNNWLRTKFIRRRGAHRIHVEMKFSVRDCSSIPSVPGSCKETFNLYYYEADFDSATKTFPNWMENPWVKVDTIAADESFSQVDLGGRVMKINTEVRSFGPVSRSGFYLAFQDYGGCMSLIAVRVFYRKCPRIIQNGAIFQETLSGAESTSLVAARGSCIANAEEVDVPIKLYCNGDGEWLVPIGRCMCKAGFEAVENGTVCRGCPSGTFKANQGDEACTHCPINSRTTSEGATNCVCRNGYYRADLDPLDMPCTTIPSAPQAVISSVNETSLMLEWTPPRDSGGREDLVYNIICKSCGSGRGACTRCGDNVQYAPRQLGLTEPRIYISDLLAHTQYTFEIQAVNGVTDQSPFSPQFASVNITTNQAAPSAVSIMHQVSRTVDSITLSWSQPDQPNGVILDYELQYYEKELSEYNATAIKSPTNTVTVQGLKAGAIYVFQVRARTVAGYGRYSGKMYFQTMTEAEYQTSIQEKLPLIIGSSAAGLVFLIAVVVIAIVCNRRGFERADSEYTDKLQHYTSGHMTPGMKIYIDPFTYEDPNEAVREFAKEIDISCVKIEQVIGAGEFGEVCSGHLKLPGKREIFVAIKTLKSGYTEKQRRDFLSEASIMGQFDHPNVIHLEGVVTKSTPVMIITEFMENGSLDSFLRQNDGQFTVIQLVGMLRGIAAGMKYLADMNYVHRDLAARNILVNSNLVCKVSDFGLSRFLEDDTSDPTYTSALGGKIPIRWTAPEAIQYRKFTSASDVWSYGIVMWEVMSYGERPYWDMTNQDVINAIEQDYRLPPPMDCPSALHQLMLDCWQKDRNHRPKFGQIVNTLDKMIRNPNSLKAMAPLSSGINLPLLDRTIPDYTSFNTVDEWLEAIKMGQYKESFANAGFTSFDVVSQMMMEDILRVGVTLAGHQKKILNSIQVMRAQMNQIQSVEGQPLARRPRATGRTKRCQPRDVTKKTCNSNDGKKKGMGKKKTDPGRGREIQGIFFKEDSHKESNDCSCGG

| SH2 binding enrichment (Grb2 SH2) | SH2 binding enrichment (SHP2-C SH2) | SH2 binding enrichment (c-Src SH2) | Sequence | phosphorylation enrichment (AncSZ) | phosphorylation enrichment (EPHB1) | phosphorylation enrichment (EPHB2) | phosphorylation enrichment (FGFR1) | phosphorylation enrichment (FGFR3) | phosphorylation enrichment (Fer (mouse)) | phosphorylation enrichment (Fes) | phosphorylation enrichment (Fyn) | phosphorylation enrichment (Hck) | phosphorylation enrichment (Jak2) | phosphorylation enrichment (MERTK) | phosphorylation enrichment (c-Abl (mouse)) | phosphorylation enrichment (c-Src) |
| --- | --- | --- | --- | --- | --- | --- | --- | --- | --- | --- | --- | --- | --- | --- | --- | --- |
| 0.712 | 0.473 | 9.05 | ESLRSYDVMDV [KCNQ2_Y562_P561S] | 1.03 | 0.663 | 0.714 | 0.581 | 0.993 | 0.555 | 1.28 | 0.556 | 0.616 | 0.921 | 0.523 | 0.817 | 0.509 |
| 0.691 | 1.79 | 0.568 | HYGNNYRDVLQ [MACC1_Y803] | 0.622 | 0.643 | 0.559 | 0.444 | 0.423 | 0.565 | 0.576 | 0.353 | 0.694 | 0.661 | 0.612 | 0.438 | 0.652 |
| 1.65 | 1.16 | 1.25 | KMKGEYYRYLA [YWHAG_Y130_D129E] | 0.981 | 0.639 | 0.717 | 4.78 | 3.14 | 0.409 | 0.961 | 0.607 | 1.09 | 1.68 | 0.957 | 1.34 | 1.07 |
| 1.26 | 1.2 | 1.56 | KVPRHYDDPGK [FOXG1_Y246] | 0.785 | 0.414 | 0.373 | 0.428 | 0.712 | 1.11 | 1.16 | 0.443 | 0.481 | 1.25 | 0.462 | 1.01 | 0.505 |
| 0.771 | 0.787 | 0.538 | LVPPRYARSEI [PKP2_Y194] | 1.26 | 0.597 | 0.72 | 0.74 | 0.941 | 0.697 | 1.34 | 0.631 | 0.783 | 0.495 | 0.528 | 0.345 | 0.394 |
| 1.11 | 0.928 | 0.845 | GCKNHYDKDKP [THAP1_Y14_R13H] | 0.583 | 0.396 | 0.521 | 0.555 | 0.562 | 0.521 | 1.02 | 0.423 | 0.411 | 0.616 | 0.504 | 0.736 | 0.445 |
| 1.03 | 0.956 | 0.559 | DVCKNYAKAKD [ALB_Y343_E345K] | 0.71 | 0.469 | 0.535 | 0.409 | 0.498 | 0.473 | 0.627 | 0.428 | 0.439 | 0.607 | 0.51 | 0.633 | 0.4 |
| 0.823 | 0.922 | 0.5 | GLAKGYIDPET [CSNK1G2_Y195_E194G] | 1.04 | 0.509 | 0.588 | 0.476 | 0.48 | 0.482 | 0.795 | 0.558 | 0.513 | 0.694 | 0.472 | 0.454 | 0.554 |
| 1.02 | 0.577 | 0.704 | CERFSYFGMKA [SLC15A2_Y60_YF] | 1.13 | 0.571 | 0.745 | 1.24 | 0.938 | 0.467 | 1.26 | 0.529 | 0.557 | 2.66 | 0.544 | 0.94 | 0.575 |
| 0.742 | 0.529 | 0.374 | VDLSKCITTIA [FAS_Y232_Y232C] | 0.975 | 0.626 | 0.533 | 0.461 | 0.641 | 0.413 | 1.01 | 0.402 | 0.431 | 0.697 | 0.364 | 0.681 | 0.308 |
| 1.16 | 0.777 | 1.04 | PLLEYYRDIFT [CDAN1_Y713] | 1.7 | 1.38 | 1.25 | 6.73 | 5.58 | 1.02 | 1.81 | 0.704 | 0.846 | 4.74 | 0.782 | 1.45 | 0.789 |
| 0.857 | 0.631 | 0.92 | GRFSGYKSKHG [EPHA3_Y570_C568S] | 0.39 | 0.34 | 0.256 | 0.312 | 0.392 | 0.278 | 0.438 | 0.407 | 0.361 | 0.438 | 0.397 | 0.65 | 0.364 |
| 0.83 | 0.679 | 0.869 | YADGVYLALEE [DUOX2_Y70_Q71L] | 1.66 | 1.82 | 1.28 | 1.12 | 1.18 | 0.531 | 1.31 | 2.28 | 1.59 | 1.39 | 1.13 | 0.899 | 2.97 |
| 0.894 | 0.86 | 0.567 | GRDQPYSGAGD [TYRO3_Y828] | 0.442 | 0.293 | 0.457 | 0.559 | 0.357 | 0.31 | 0.765 | 0.623 | 0.445 | 0.508 | 0.383 | 0.359 | 0.356 |
| 1.53 | 1.48 | 1.08 | FMLFQYLKQIE [RPAP3_Y569_D564Y_YF] | 1.12 | 0.539 | 0.716 | 0.468 | 0.783 | 0.506 | 1.36 | 0.447 | 0.505 | 1.27 | 0.482 | 1.07 | 0.498 |
| 1.29 | 1.08 | 0.906 | PLQKIYNFNVL [SLC4A1_Y553_T552I_YF] | 0.985 | 0.743 | 0.84 | 0.793 | 0.684 | 0.795 | 1.44 | 1.43 | 1.12 | 1.19 | 0.811 | 1.06 | 2.63 |
